US20070286859A1 (published 2007)
Where two headings read alike, the source gives them in different places.

Legend:
[1] = biological target: T1, extracellular region of human V158 FcγRIIIa with C-terminal 6xHis-tag and GST-tag (human, UniProt P08637 17-208); assay: AlphaScreen competition, fold vs WT alemtuzumab
[2] = biological target: T1, extracellular region of human V158 …; assay: SPR, fold vs WT alemtuzumab
[3] = biological target: extracellular region of human F158 FcγRIIIa with C-terminal 6xHis-tag and GST-tag (human, UniProt P08637 17-208); assay: SPR, receptor on chip
[4] = biological target: T1, extracellular region of human V158 …; assay: SPR, receptor on chip
[5] = biological target: T1, extracellular region of human V158 …; assay: AlphaScreen competition
[6] = biological target: T1, extracellular region of human V158 …; assay: AlphaScreen competition; remark: listed apart in the source
[7] = biological target: T1, extracellular region of human V158 …; assay: AlphaScreen competition; remark: listed apart in the source

Binder | Fold WT [2] [fold] | Kd [3] [nM] | Kd [4] [nM] | also measured
T260H alemtuzumab (antibody) chain 1: not shown chain 2: not shown | 1.86 | – | – | Fold WT [1]: 1 fold
E272R alemtuzumab (antibody) chain 1: not shown chain 2: not shown | 1.38 | – | – | –
WT alemtuzumab (antibody) chain 1: not shown chain 2: not shown | – | 730 | 68 | –
E283H alemtuzumab (antibody) chain 1: not shown chain 2: not shown | 2.31 | – | – | –
V284E alemtuzumab (antibody) chain 1: not shown chain 2: not shown | 1.51 | – | – | –
S304T alemtuzumab (antibody) chain 1: not shown chain 2: not shown | 12.8 | – | – | –
V264I alemtuzumab (antibody) chain 1: not shown chain 2: not shown | – | – | 64 | –
N297D/A330Y/I332E alemtuzumab (antibody) chain 1: QVQLQESGPGLVRPSQTLSLTCTVSGFTFTDFYMNWVRQPPGRGLEWIGFIRDKAKGYTTEYNPSVKGRVTMLVDTSKNQFSLRLSSVTAADTAVYYCAREGHTAAPFDYWGQGSLVTVSSASTKGPSVFPLAPSSKSTSGGTAALGCLVKDYFPEPVTVSWNSGALTSGVHTFPAVLQSSGLYSLSSVVTVPSSSLGTQTYICNVNHKPSNTKVDKKVEPKSCDKTHTCPPCPAPELLGGPSVFLFPPKPKDTLMISRTPEVTCVVVDVSHEDPEVKFNWYVDGVEVHNAKTKPREEQYDSTYRVVSVLTVLHQDWLNGKEYKCKVSNKALPYPEEKTISKAKGQPREPQVYTLPPSRDELTKNQVSLTCLVKGFYPSDIAVEWESNGQPENNYKTTPPVLDSDGSFFLYSKLTVDKSRWQQGNVFSCSVMHEALHNHYTQKSLSLSPGK chain 2: not shown | – | – | – | affinity as a fraction of glycosylated WT alemtuzumab [5]: 0.4 fold
S239D/N297D/I332E alemtuzumab (antibody) chain 1: QVQLQESGPGLVRPSQTLSLTCTVSGFTFTDFYMNWVRQPPGRGLEWIGFIRDKAKGYTTEYNPSVKGRVTMLVDTSKNQFSLRLSSVTAADTAVYYCAREGHTAAPFDYWGQGSLVTVSSASTKGPSVFPLAPSSKSTSGGTAALGCLVKDYFPEPVTVSWNSGALTSGVHTFPAVLQSSGLYSLSSVVTVPSSSLGTQTYICNVNHKPSNTKVDKKVEPKSCDKTHTCPPCPAPELLGGPDVFLFPPKPKDTLMISRTPEVTCVVVDVSHEDPEVKFNWYVDGVEVHNAKTKPREEQYDSTYRVVSVLTVLHQDWLNGKEYKCKVSNKALPAPEEKTISKAKGQPREPQVYTLPPSRDELTKNQVSLTCLVKGFYPSDIAVEWESNGQPENNYKTTPPVLDSDGSFFLYSKLTVDKSRWQQGNVFSCSVMHEALHNHYTQKSLSLSPGK chain 2: not shown | – | – | – | affinity as a fraction of glycosylated WT alemtuzumab [5]: 0.8 fold
I332E alemtuzumab (antibody) chain 1: not shown chain 2: not shown | – | 72 | 31 | –
V264I/I332E alemtuzumab (antibody) chain 1: not shown chain 2: not shown | – | 52 | 17 | IC50 [6]: 0.5 nM
S298A alemtuzumab (antibody) chain 1: not shown chain 2: not shown | – | 285 | 52 | –
S239D alemtuzumab (antibody) chain 1: not shown chain 2: not shown | – | – | – | IC50 [7]: 0.8 nM
S298A/E333A/K334A alemtuzumab (antibody) chain 1: QVQLQESGPGLVRPSQTLSLTCTVSGFTFTDFYMNWVRQPPGRGLEWIGFIRDKAKGYTTEYNPSVKGRVTMLVDTSKNQFSLRLSSVTAADTAVYYCAREGHTAAPFDYWGQGSLVTVSSASTKGPSVFPLAPSSKSTSGGTAALGCLVKDYFPEPVTVSWNSGALTSGVHTFPAVLQSSGLYSLSSVVTVPSSSLGTQTYICNVNHKPSNTKVDKKVEPKSCDKTHTCPPCPAPELLGGPSVFLFPPKPKDTLMISRTPEVTCVVVDVSHEDPEVKFNWYVDGVEVHNAKTKPREEQYNATYRVVSVLTVLHQDWLNGKEYKCKVSNKALPAPIAATISKAKGQPREPQVYTLPPSRDELTKNQVSLTCLVKGFYPSDIAVEWESNGQPENNYKTTPPVLDSDGSFFLYSKLTVDKSRWQQGNVFSCSVMHEALHNHYTQKSLSLSPGK chain 2: not shown | – | 156 | 39 | –
